Where a chain is given by its changes, count along the chain named. Square brackets hold non-standard residues; d marks the D form. GABA = NCCCC(=O)O

Test in all cases: positional peptide library pulldown on immobilised Nb, LC-MS of supernatant; signal ratio to control GFP-Nb (1 = not captured, near 0 = captured)
In test [1] the target is T1, BC2T S8A.
T1 construct: positional scanning library member
T1 peptide: Ac-PDRKAAVAHWQQ-NH2
The method, boiled down: (§1)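 Unbound peptide left in supernatant after 1 h pulldown in PBS/0.01% CHAPS measured by reversed-phase LC-MS (8–30% eluent B gradient, 20 min).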

Test [2] concerns the target T2, BC2T Q11H.
T2 construct: positional scanning library member
T2 peptide: Ac-PDRKAAVSHWHQ-NH2
The method, boiled down:
as §1

Test [3] deals with T3, BC2T H9(I/L2) (N-terminal acetyl; C-terminal amide).
T3 construct: positional scanning library member; I or L not resolved
The method, boiled down:
as §1

In test [4] the target is T4, BC2T Q11G.
T4 construct: positional scanning library member
T4 peptide: Ac-PDRKAAVSHWGQ-NH2
The method, boiled down: as §1

Test [5] addresses T5, BC2T Q12C(Abu) (SMILES …).
T5 construct: positional scanning library member
T5 peptide: Ac-PDRKAAVSHWQ[GABA]-NH2
The method, boiled down: as §1

In test [6] the target is T6, BC2T Q11K.
T6 construct: positional scanning library member
T6 peptide: Ac-PDRKAAVSHWKQ-NH2
The method, boiled down: as §1

For test [7], the target named is T7, BC2T Q11A.
T7 construct: positional scanning library member
T7 peptide: Ac-PDRKAAVSHWAQ-NH2
The method, boiled down:
as §1

Test [8] addresses T8, BC2T H9S.
T8 construct: positional scanning library member
T8 peptide: Ac-PDRKAAVSSWQQ-NH2
The method, boiled down:
as §1

For test [9], the target named is T9, BC2T W10S.
T9 construct: positional scanning library member
T9 peptide: Ac-PDRKAAVSHSQQ-NH2
The method, boiled down: as §1

Test [10] concerns the target T10, BC2T W10H.
T10 construct: positional scanning library member
T10 peptide: Ac-PDRKAAVSHHQQ-NH2
The method, boiled down: as §1

The target in test [11] is T11, BC2T S8Q.
T11 construct: positional scanning library member
T11 peptide: Ac-PDRKAAVQHWQQ-NH2
The method, boiled down:
as §1

Test [12] has as its target T12, BC2T Q11(I/L2) (N-terminal acetyl; C-terminal amide).
T12 construct: positional scanning library member; I or L not resolved
The method, boiled down: as §1

Test [13] deals with T13, BC2T Q12Y.
T13 construct: positional scanning library member
T13 peptide: Ac-PDRKAAVSHWQY-NH2
The method, boiled down: as §1

Test [14] addresses T14, BC2T W10T.
T14 construct: positional scanning library member
T14 peptide: Ac-PDRKAAVSHTQQ-NH2
The method, boiled down: as §1

For test [15], the target named is T15, BC2T H9N.
T15 construct: positional scanning library member
T15 peptide: Ac-PDRKAAVSNWQQ-NH2
The method, boiled down:
as §1

Test [16] deals with T16, BC2T S8G.
T16 construct: positional scanning library member
T16 peptide: Ac-PDRKAAVGHWQQ-NH2
The method, boiled down:
as §1

Test [17] addresses T17, BC2T Q12T.
T17 construct: positional scanning library member
T17 peptide: Ac-PDRKAAVSHWQT-NH2
The method, boiled down: as §1

In test [18] the target is T18, BC2T S8F.
T18 construct: positional scanning library member
T18 peptide: Ac-PDRKAAVFHWQQ-NH2
The method, boiled down:
as §1

Test [19] concerns the target T19, BC2T Q11W.
T19 construct: positional scanning library member
T19 peptide: Ac-PDRKAAVSHWWQ-NH2
The method, boiled down:
as §1

The target of test [20] is T20, BC2T H9A.
T20 construct: positional scanning library member
T20 peptide: Ac-PDRKAAVSAWQQ-NH2
The method, boiled down:
as §1

For test [21], the target named is T21, BC2T H9(I/L1) (N-terminal acetyl; C-terminal amide).
T21 construct: positional scanning library member; I or L not resolved
The method, boiled down:
as §1

B1: BC2 nanobody (VHH)
VHH: QVQLVESGGGLVQPGGSLTLSCTASGFTLDHYDIGWFRQAPGKEREGVSCINNSDDDTYYADSVKGRFTIFMDNAKDTVYLQMNSLKPEDTAIYYCAEARGCKRGRYEYDFWGQGTQVTVSS
notes: immobilised on beads in this assay; also called BC2-Nb; BC2 nanotrap (immobilised)
On to B1, for which the ratio in test [1] turned out to be 0; in [2], 0.1; in [3], 0.1; in test [4], 0.1; in [5], 0.1; in test [6], 0. Moreover, the ratio in [7] is 0.1; in [8], 0.2; in test [9], 1.1; in test [10] it was 1; in test [11], 0.7; in test [12], 0.1. Moreover, the ratio in test [13] came out at 0.1; in [14], 1; in [15], 0.1; in [16], 0.5; in [17], 0.1; in test [18] it was 0.7. Further, the results for the ratio in test [19], in test [20] and in [21] were 0, 0.2 and 0.3, respectively.

B2: BC2-NbR106S (VHH)
VHH: B1 VHH with R106S
notes: headlock mutant of BC2-Nb; immobilised on beads in this assay
In the case of B2, the ratio was 0.1 in test [1]; 0.2 in test [2]; 0.3 in [3]; 0.5 in test [4]; 0.2 in [5]; 0.1 in test [6]. The ratio in test [7] was 0.4; in test [8] it was 0.5; in test [9] it was 1.1; in [10] it was 1.1; in test [11], 0.9; in [12] it was 0.4. The ratio in test [13] was found to be 0.3; in [14], 1; in test [15], 0.3; in [16], 0.9; in [17], 0.3; in test [18] it was 0.9. Moreover, the ratio in test [19] was found to be 0.1; in test [20] it was 0.5; in test [21] it was 0.5.

Values taken from patent US20170137467A1 (CHROMOTEK, published 2017).
